Measured values as given in PMC10192418, “High-affinity peptides developed against calprotectin and their application as synthetic ligands in diagnostic assays” (Nature Communications, 2023).
Several values for one entry are separate records, joined by “and”; a condition that tells them apart may be missing. Equal entries are not always repeated. Ends that are not written are not given here. 5(6)‑carboxyfluorescein = 5(6)-carboxyfluorescein on the N-terminus

T1: native calprotectin derived from granulocytes (human, UniProt P05109 1-93; P06702 1-114)
T1 construct: S100A8 (Mrp-8), human, native; S100A9 (Mrp-14), human, native; Tetramer with calcium, dimer with 1 mM EDTA; also called S100A8/S100A9; Mrp-8/Mrp-14; source: also native in human serum samples; copies: 2 + 2
T1 sequence (looked up) 1: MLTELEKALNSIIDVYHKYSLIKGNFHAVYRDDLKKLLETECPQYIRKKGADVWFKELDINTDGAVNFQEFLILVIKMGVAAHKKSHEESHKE
T1 sequence (looked up) 2: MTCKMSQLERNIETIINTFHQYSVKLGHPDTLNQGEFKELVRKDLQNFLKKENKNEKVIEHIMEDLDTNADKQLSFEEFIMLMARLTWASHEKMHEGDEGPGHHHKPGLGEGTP

T2: recombinant calprotectin B-RCAL lacking the His6-tag and with the heterodimer linker cleaved by 3C protease, … (human, cysteines replaced by serines | cysteines replaced by serines)
T2 construct: rest of the first HRV 3C site after cleavage (LEVLFQ/GP), worked out from the indicated cleavage site; S100A9, human; rest of the second HRV 3C site left on S100A9 after cleavage, worked out from the indicated cleavage site; rest of the second HRV 3C site after cleavage, worked out from the indicated cleavage site; S100A8, human; One heterodimer and one peptide in the asymmetric unit; the …
T2 chain 1: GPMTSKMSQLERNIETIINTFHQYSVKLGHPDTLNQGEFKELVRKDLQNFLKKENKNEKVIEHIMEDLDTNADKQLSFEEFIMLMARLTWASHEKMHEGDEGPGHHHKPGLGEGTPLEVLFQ
T2 chain 2: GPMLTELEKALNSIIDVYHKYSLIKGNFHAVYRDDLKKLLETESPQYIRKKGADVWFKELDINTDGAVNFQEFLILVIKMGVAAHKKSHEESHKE

B1: linear peptide 3 (peptide)
peptide: {5(6)‑carboxyfluorescein}-RSPESVAFPMFQSHWYSG
notes: phage-selected peptide 3 with its four cysteines replaced by serines; Synthesised on rink amide AM resin, so a C-terminal amide is likely (surmised); also called peptide 3 (linear; all four cysteines replaced with serines); source: synthetic peptide (Fmoc solid-phase synthesis, HPLC purified)
B2: B-RCAL (BÜHLMANN recombinant calprotectin; His6-linker-S100A9-linker-S100A8) (complex, human)
chain: MTCKMSQLERNIETIINTFHQYSVKLGHPDTLNQGEFKELVRKDLQNFLKKENKNEKVIEHIMEDLDTNADKQLSFEEFIMLMARLTWASHEKMHEGDEGPGHHHKPGLGEGTPLEVLFQGPMLTELEKALNSIIDVYHKYSLIKGNFHAVYRDDLKKLLETECPQYIRKKGADVWFKELDINTDGAVNFQEFLILVIKMGVAAHKKSHEESHKE
notes: S100A9 (Mrp-14), human; cleavable linker, HRV 3C protease recognition site (LEVLFQ/GP); not cleaved in this molecule; S100A8 (Mrp-8), human; With calcium two fusion chains form the calprotectin tetramer; without calcium (EDTA) a single fusion chain is the 'dimer' (S100A8/S100A9); also called heterodimeric fusion protein; source: provided by BÜHLMANN Laboratories AG

How the values were obtained:
[1] = molecular target: B2; assay: fluorescence polarisation; calprotectin serially diluted, fluorescent peptide at 20 nM; 20 mM HEPES, 100 mM NaCl, 2 mM CaCl2, pH 7.5, 1 mM DTT, 0.01% Tween-20; tetrameric calprotectin; Kd calculated on the concentration of the heterodimer (1:1 heterodimer:peptide); conditions: both partners purified
[2] = molecular target: T1, native calprotectin derived from …; assay: as above; conditions: both partners purified
[3] = molecular target: T2, recombinant calprotectin B-RCAL lacking …; assay: crystal structure; co-crystallisation of cleaved cysteine-free calprotectin (440 μM) with 14-fold excess of linear peptide 3 and 1 mM CaCl2; sitting drop, 18 °C; 0.1 M MIB pH 6.0, 25% PEG 1500; conditions: both partners purified
[4] = molecular target: the molecule itself; assay: dynamic light scattering + other: mass photometry; B-RCAL in 20 mM HEPES, 100 mM NaCl, pH 7.5 with 2 mM CaCl2, 1 h at room temperature; tetramer = two B-RCAL fusion chains

| Binder | Kd [1] | Kd [2] [nM] | binding result [3] | binding result [4] |
| --- | --- | --- | --- | --- |
| B1 | 26 nM and 20 nM | 26 | binds |  |
| B2 |  |  |  | binds |
